Read-outs that look alike come from different tables or passages of the source.
B1: SEP3ΔC, C-terminally truncated SEP3, in vitro translated (domain or fragment)
chain: MGRGRVELKRIENKINRQVTFAKRRNGLLKKAYELSVLCDAEVALIIFSNRGKLYEFCSSSSMLRTLERYQKCNYGAPEPNVPSREALAVELSSQQEYLKLKERYDALQRTQRNLLGEDLGPLSTKELESLERQLDSSLKQIRALRTQFMLDQLNDLQSKERMLTETNKTLRLRLADGYQMPLQLNPN
modifications: 35S-methionine in some experiments

Columns and labels:
Test in all cases: native gel or EMSA
[1] = target: …3 (SEP3), full-length, in vitro translated (Arabidopsis thaliana) (UniProt O22456)
[2] = target: …3 (SEP3), full-length, in vitro translated (Arabidopsis thaliana) (UniProt O22456); remark: listed apart in the source
native gel or EMSA [3] = target: the molecule itself
native gel or EMSA [4] = target: the molecule itself; remark: listed apart in the source

Molecule	apparent Kd1/Kd2 (cooperativity of two dimers on DNA) [1]	stoichiometry N [1]	stoichiometry N [2]	apparent Kd1/Kd2 (cooperativity of two dimers on DNA) (native gel or EMSA [3])	stoichiometry N (native gel or EMSA [4])
…3 (SEP3), full-length, in vitro translated (from UniProt O22456 1-251) (natural protein)	83	2	4		
B1				89	2

— paper PMC2615621 (Nucleic Acids Research, 2008)
